Here are results for 30 sequences from the nanobody polyreactivity screen of Harvey et al. (2022).

This data set can be described thus: yeast display, Sf9 membrane polyspecificity reagent, FACS + sequencing; frameworks hold sequencing errors. The method in brief: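 A nanobody's polyreactivity label depends on the gate it was sorted from. Yeast display cells were stained with 10% biotinylated, detergent-solubilized Sf9 membrane reagent for 1 hour at 4 °C, enriched on streptavidin microbeads and sorted by FACS. The low and high (top ~1%) gates were set on anti-HA fluorescence for expression and streptavidin fluorescence for reagent binding.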
In the case of “QVQLVESGGCIVQAGGSLRLSCADSGSIFDWYAMVWYRQAPGKERELVAAINEGGGSTYYADSVKGRFTISRDNANNTVYLQMNSLKPEDHAVYYCAAGDYYLQDNYWGQGTQVTVSS”, the “polyreactivity (PSR sort gate)” value was “low polyreactivity”. Regarding “QVQLVESGGGLVQAGGSLRLSCAASGSTFNNYAMGWYSQAPGKERELVAAITRGGGSTHYADSVKGRFTISRDNAKKTVYFQMNCRKPEDTAVYYCAVAGFDRGQYVRYYYWGQGTQVTVSS”, the “polyreactivity (PSR sort gate)” value is “low polyreactivity”.

Take “QVQLVESGGGFVQAGGSLRLSFAASGFTFGRYAMGWYIQAPGKERELVAAISWSDGSTYYADSVKGRFTISRDNAKNTVYLQMNSLKPQDTAVYYCAARYGGGISQAKYYYWGQGTQVTVSS”: the “polyreactivity (PSR sort gate)” value was “high polyreactivity”. With “QVQLVESGGALVQARGSLRLSCAASGRTFQIYAKGWDRQGHGKEMELVARITGVGSTNYADSVKGRFTISRDNAKNTVYLQMNSLKPEDTAVYYCAAYWILNNYEMYYWGQGTQVTVSS” the entry was “low polyreactivity”.

In the case of “QVQLVESGRGLVQAGGSLRLSCAASGIIFGGYSMGWYRQAPGKERELVAAISGIGSRTYYADSVKGRFTISRDNAKNTVYLQMNSLKPEDTAVYYCNADQVYGYNYWGQGTQVTVSS”, the “polyreactivity (PSR sort gate)” value is “high polyreactivity”. For “QVQLVESGGGLVQAGGSLRLSCAASGLTLYRYALGWYRQAPGKERELVAAISWGGGSTYYADSVKGRFTISRDNAKNTVYLQMNSLKPEDTAVYYCAAGRLLYIPRYYYWGQGTQVTVSS”, the “polyreactivity (PSR sort gate)” value is listed as “high polyreactivity”.

In the case of “QVQLVESGGGLVQAGGSLRLICAASGLTFFSYAMGWYRQATGKEREFVAAITRRGGRTYYADSVKGRFTISRENANNTVYLQMNSLKPEDTAVYYCNAVPVLISVYRMEYWGQGTQVNVSS”, the “polyreactivity (PSR sort gate)” value is “high polyreactivity”. Consider “QVQLVESGGGLVQAGGSLRLSCAASGRILGKNTMGWYRQAPGKEREFVAAISASGGRTYYADSVKGRFTISRDNAKYTVYLQMNSLKPEDTAVYYCAAARSRYSYATGFDYWGQGTQVTVSS”, for which the “polyreactivity (PSR sort gate)” value was “high polyreactivity”.

Take “QVQLVESGGGLVQAGGSLRLSCAASGSTFPVYAMGWYRQAPGKERELVAAISRSGASTYYADSVKGRFTISRDNAKNTVYLQMNSLKPEDTAVYYCARGYQGRLKYEYWGQGTQVTVSS”: the “polyreactivity (PSR sort gate)” value is given as “low polyreactivity”.

As for “QVQLVESLGGLVQAGGSLRLSSAASGSIFRRYAMGWYREAPGKERELVAAITSGDTTKYADSLKGRFTISRDNAKNNVYLHMNSLKPEDTAVYYCNKKGWPRFVHGFLRRDDYWGQGTQVTLSS”, the “polyreactivity (PSR sort gate)” value is “low polyreactivity”. For “QVQLVESGGGLVQAGGSLRLSCAASGSIFYYYAMGWYRQAPGKERELVAAISSGGSTNYADSVKGRFTISRDYAKNTVYLQMNSLKPEDTAVYYCAADYRAQYVVWYTYDYWGQGTQVTVSS”, the “polyreactivity (PSR sort gate)” value is listed as “low polyreactivity”. With “QVQLVESGGGLVQAGGSLRLSCAASGSIFGFYAMGWYRQAPGKERELVAVISVSDGSTYYADSVKGRFTISRDNAKNTVYLQMNCLKPEDTAVYYCAATPRGSYGYYYWGQGTQVTVSS”, the “polyreactivity (PSR sort gate)” value is recorded as “low polyreactivity”.

“QVQLVESGGGLVQAGGSLRLSCAASGFTFRFYAMGWYRQAPGKERELVATISSRGGRTYYADSVKGRFTISRDNAKNTVYLQMNSLKPEDTAVYYCAADQKSQYQGNYWGQGTQVTVSS”: the “polyreactivity (PSR sort gate)” value is reported as “high polyreactivity”. For the sequence “QVQLVESGGGLVQAGGSLRLICAASGSTFNGYVMGWYRKAPGKERELVAAISRSGGSTYYADSVKGRFTNSRDNAKNTVYLQMNSLKPEDTAVYDCAAAPPLAGLGGYYWGQGTQVTVSS”, the “polyreactivity (PSR sort gate)” value is on record as “high polyreactivity”. Under “QVQLVESGGGLVQAGGSLRLSCAASGRIFYRYAMGWYRQAPGKERELVAVISGGGTYYADSVKGRFTISRDNAKNTVYLQMNSLKPEDTAVYYCAADDGVSLVSPYYGGYDYWGQGTQVTVSS” stands “low polyreactivity”; under “QVQLVESGGGLVQAGGSLRLSCAASGYIFRLYTMGWYRQAPGKERELVAAISYSGGSTYYADSVKGRFTISRDNAKNTVYLQMNSLKPEDTAVYYCAAEDWRGYRWIRYGYWGQGTQVTVSS”, “low polyreactivity”. For “QVQLVESGGGLVQAGGSLRLSCAASGFTFHDYAMGWYRQAPGKERELVAAITKSGGRTYYADSVKGRFTISRDNAKNTVYLQMNSLKPEDTAVYYCAAASYRSQYDYYYWGQGTQVTVSS”, the “polyreactivity (PSR sort gate)” value is reported as “high polyreactivity”. With “QVQLVESGGGIVQAGGSLRLSCAASGSTIGGYAMGWYRQAPGKERELVAAIRRSGDSTYYADSVKGRFTISRDNAKNTVYLQMNSLKPEDTAVYYCNTDRTHSYQYGGYDYWGQGTQVTVSS”, the “polyreactivity (PSR sort gate)” value was “low polyreactivity”.

For “QVQLVESGGGLVQAGGSLRLSCAASGNTFNENAMGWYRQSPGKERELVAAITSSGVSTFYADSVKGRFTISRDNAKNTVYLQMNSLKPEDTAVYYCAAEYYELDEYTGDYWVGSDYWGQGTQVTVSS”, the “polyreactivity (PSR sort gate)” value is “low polyreactivity”.

Turning to “QVQLVESGGGLVQAGGSLRLSCAASGSIFVFYAMGWYRQAPGKERELVAAISYRGGSTYADSVKGRFTISRDNEKNTVYLQMNSLKPEDTAVYYCAARGLVRSYDYWGQGTQVTVSS”, the “polyreactivity (PSR sort gate)” value is recorded as “high polyreactivity”.

As for “QVQLVESGGGLVQAGGSLRLSCAASGITFAVKAMGWSRQAPGKERELVAAISRSAGSTYYADSVKGRFTISRDNAKNTVYLQMNSLKPEDTAVYYCATALRYARSRNRFYYWGQGTQVTVST”, the “polyreactivity (PSR sort gate)” value is given as “high polyreactivity”.

Take “QVQLVESGGGLVQAGGSLRLSCAASGSTFPYNAMGSYRQAPGKERELVAAISSSGGRTYYADSVKGRFTISRDTAKNTVYLQMNSLKPEDTAVYYCNAAYYYTYGYWGQGTQVTVSS”: the “polyreactivity (PSR sort gate)” value is on record as “high polyreactivity”. Under “QLQLVESGGGLVQAGGSLRLSCAASGLTFQYYAMGWYRQAPGKERELVAAISTSGGSTYYADSVKGRFTISRDNAKNTVYLQMNSLKPEDTAVYYCAARGPGYPRIWRKYGYWGQGTQVTVSS” stands “high polyreactivity”; under “QVQLVESGGGLVQAGGSLRLSCAASGSIFYQYAMGWYRQAPGKERELVAGITWSGGSTYYADSVKGRFTISRDNAKYTVYLQMNSLKPEDTAVFYCAAQYFWYVYSYDYWGQGTQVTVSS”, “high polyreactivity”. With “QGQLVESGGGLVQAGGILLLSCAASGIIFLYYAMGWYRQAPGKERELVAAITSGGSTYYADSVKGRFTISRDNAKNTVYLQMNSLKPEDTAVYYCNAPYHGREYEWGQGTQVTVSS” the entry was “high polyreactivity”; with “QVQLVESGGGLVQAGGSLRLSCAASGRIFWRNAMGWNRQAPGKERELVAAISSGGSTYYADSVKGRFTISRDNAKNTVYLQMNSLKPEDTAVYYCAARSSWRGGSYDHFERDYWGQGTQVTVSS”, “high polyreactivity”. With “QVQLVESGGGLVQAGGSLRLSCAASGRIFSRYAMGWYTQAPGKERELVAAITQSGTSTYDADSVKGRFTISRDNAKNTVYLQMNSLKPEDTAVYFCNAYRQYRYDYWGQGTQVTVSS” the entry was “low polyreactivity”; with “QVQHVESGGGVVQGGGSLRLSCAASLSIFYIYAMGWYRQAPGTERELVAAITRSGGSTNYADSVTGPFTFSRDNATNTVYLQMTSLQPEDTAVYYCAAAVGRPYTPTYDYWGQGTKVTVSS”, “low polyreactivity”. As for “QVQLVESGGGLVQAGGSLRLSCAASGSIFDLYAMGWYRQAPGKERELVAGISYSGGSTYYADSVKGRFTISRDNAKNTVYLQMNSLKPEDTAVYYCAVDLGYRLGRFDYWGQGTQVTVSS”, the “polyreactivity (PSR sort gate)” value is listed as “low polyreactivity”. Take “QVQLVESGGGLVQAGGSLRLSCAASGSTFRWNAMGWYRQAPGKERELVAAISWSGGTTYYADSVKGRFTISRDNAKNTVYLQMNSLKPEDTAVYYCAARTLWQGYWGQGTQVTVSS”: the “polyreactivity (PSR sort gate)” value was “high polyreactivity”.
